Reference: patent publication US20180104312A1 (Eli Lilly, published 2018)
No end group written: not given here.

Experiments:
[1] = biological target: T1, human Glucagon-Like Peptide-1 receptor (human, UniProt P43220 24-463); assay: cell-based or functional assay
[2] = biological target: T2, human glucose-dependent insulinotropic polypeptide receptor (human, UniProt P48546 22-466); assay: cell-based or functional assay
T2 sequence (looked up): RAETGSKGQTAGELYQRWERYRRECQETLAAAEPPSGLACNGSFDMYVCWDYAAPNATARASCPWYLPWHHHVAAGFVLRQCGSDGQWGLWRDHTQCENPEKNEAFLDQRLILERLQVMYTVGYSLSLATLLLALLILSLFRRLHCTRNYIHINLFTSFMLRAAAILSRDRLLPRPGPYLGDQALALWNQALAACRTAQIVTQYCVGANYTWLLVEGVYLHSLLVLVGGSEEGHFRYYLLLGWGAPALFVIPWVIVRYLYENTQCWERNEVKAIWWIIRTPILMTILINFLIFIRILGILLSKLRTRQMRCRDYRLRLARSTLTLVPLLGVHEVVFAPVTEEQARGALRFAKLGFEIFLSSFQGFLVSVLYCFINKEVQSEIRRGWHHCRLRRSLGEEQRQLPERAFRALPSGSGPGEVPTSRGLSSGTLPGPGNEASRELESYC

[3] = biological target: T3, recombinant human glucagon receptor (human, UniProt P47871 26-477); assay: cell-based or functional assay
T3 sequence (P47871 26-477): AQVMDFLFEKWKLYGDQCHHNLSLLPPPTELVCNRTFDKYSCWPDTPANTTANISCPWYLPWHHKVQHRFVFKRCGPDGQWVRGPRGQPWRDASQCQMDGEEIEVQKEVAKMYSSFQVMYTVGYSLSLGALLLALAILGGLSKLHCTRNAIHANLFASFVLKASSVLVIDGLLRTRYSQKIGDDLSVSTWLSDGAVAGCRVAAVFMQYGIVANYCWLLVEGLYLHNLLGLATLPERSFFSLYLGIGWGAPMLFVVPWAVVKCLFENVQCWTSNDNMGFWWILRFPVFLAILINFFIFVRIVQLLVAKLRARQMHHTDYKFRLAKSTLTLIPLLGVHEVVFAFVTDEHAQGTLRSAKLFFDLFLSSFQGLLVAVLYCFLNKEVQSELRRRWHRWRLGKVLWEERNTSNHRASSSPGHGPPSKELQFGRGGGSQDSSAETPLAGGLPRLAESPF

[4] = biological target: T3, recombinant human glucagon receptor; assay: I-125-Gcg competition SPA, membranes of 293HEK cells expressing hGcg-R
Experimental: (§1) The specific activity is 2200 Ci/mmol. KD determination is performed by homologous competition or saturation binding analysis.
(§2) The receptor binding assay is carried out using a Scintillation Proximity Assay (SPA) format with wheat germ agglutinin (WGA) beads (Perkin Elmer). The binding buffer contains 25 mM 4-(2-hydroxyethyl)-1-piperazineethanesulfonic acid (HEPES), pH 7.4, 2.5 mM CaCl₂, 1 mM MgCl₂, 0.1% (w/v) bacitracin (Affymetrix), 0.003% (w/v) Polyoxyethylenesorbitan monolaurate (TWEEN®-20) and Roche Complete™ Protease Inhibitors without EDTA.

mouse glucagon receptor = biological target: T4, mouse glucagon receptor (mouse, UniProt Q61606 27-485); assay: I-125-Gcg competition SPA, membranes of 293HEK cells expressing mGcg-R
T4 construct: whole, on cells; Used as membranes of a clonal 293HEK line; also called mGcg-R; mGcgR
T4 sequence (Q61606 27-485): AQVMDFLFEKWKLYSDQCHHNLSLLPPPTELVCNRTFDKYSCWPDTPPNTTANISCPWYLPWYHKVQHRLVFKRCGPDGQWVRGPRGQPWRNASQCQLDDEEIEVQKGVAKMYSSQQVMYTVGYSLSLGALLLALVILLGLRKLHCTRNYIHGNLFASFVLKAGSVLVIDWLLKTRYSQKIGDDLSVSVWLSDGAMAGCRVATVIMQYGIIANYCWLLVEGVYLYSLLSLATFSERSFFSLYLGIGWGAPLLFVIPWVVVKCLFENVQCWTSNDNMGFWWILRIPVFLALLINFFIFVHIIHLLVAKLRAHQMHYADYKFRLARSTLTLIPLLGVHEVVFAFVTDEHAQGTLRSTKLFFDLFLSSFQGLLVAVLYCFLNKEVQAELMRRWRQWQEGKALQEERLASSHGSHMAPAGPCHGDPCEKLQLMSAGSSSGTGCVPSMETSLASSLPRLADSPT
Experimental: as §1, §2

rat glucagon receptor = biological target: T5, rat glucagon receptor (rat, UniProt P30082 27-485); assay: I-125-Gcg competition SPA, membranes of 293HEK cells expressing rGcg-R
T5 construct: whole, on cells; Used as membranes of transiently transfected 293HEK cells; also called rGcg-R; rat Gcg-R
T5 sequence (P30082 27-485): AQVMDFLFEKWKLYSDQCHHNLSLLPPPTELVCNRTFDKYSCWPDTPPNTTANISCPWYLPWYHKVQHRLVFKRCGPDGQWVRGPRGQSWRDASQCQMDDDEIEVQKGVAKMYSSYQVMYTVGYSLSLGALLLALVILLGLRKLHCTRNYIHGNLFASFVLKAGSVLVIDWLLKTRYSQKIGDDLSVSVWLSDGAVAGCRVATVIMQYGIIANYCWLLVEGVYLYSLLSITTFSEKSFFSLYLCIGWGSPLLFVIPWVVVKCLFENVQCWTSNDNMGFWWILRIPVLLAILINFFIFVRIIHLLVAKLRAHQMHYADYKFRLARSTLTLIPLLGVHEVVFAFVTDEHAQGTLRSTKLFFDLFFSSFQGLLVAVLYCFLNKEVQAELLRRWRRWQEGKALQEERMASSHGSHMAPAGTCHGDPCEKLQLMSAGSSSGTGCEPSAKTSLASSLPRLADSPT
Experimental: as §1, §2

[5] = biological target: T1, human Glucagon-Like Peptide-1 receptor; assay: cell-based or functional assay; remark: listed apart in the source
[6] = biological target: T2, human glucose-dependent insulinotropic …; assay: cell-based or functional assay; remark: listed apart in the source
[7] = biological target: T3, recombinant human glucagon receptor; assay: cell-based or functional assay; remark: listed apart in the source
[8] = biological target: T1, human Glucagon-Like Peptide-1 receptor; assay: cell-based or functional assay; remark: listed apart in the source
[9] = biological target: T2, human glucose-dependent insulinotropic …; assay: cell-based or functional assay; remark: listed apart in the source
[10] = biological target: T3, recombinant human glucagon receptor; assay: cell-based or functional assay; remark: listed apart in the source

B1: Example 2 (peptide)
peptide: YXQGTFTSDYSKYLDXKKAXEFVEWLLETGPSSGAPPPS
modifications: Aib at positions 2 and 16; K20 epsilon-amino group conjugated with ([2-(2-Amino-ethoxy)-ethoxy]-acetyl)2-(γGlu)2-CO-(CH2)18-CO2H; C-terminal primary amide
[1]
  EC50, intracellular cAMP (HTRF): > 100 nM
[2]
  EC50, intracellular cAMP (HTRF): > 500 nM
[3]
  EC50, intracellular cAMP (HTRF): 0.0112 nM
[4]
  Ki: 1.07 nM
Mouse glucagon receptor
  Ki: 0.991 nM
Rat glucagon receptor
  Ki: 5.59 nM

B2: Example 3 (peptide)
peptide: YXQGTFLSDYSKYLDXKKAXEFVEWLLETGPSSGAPPPS
modifications: Aib at positions 2 and 16; K20 epsilon-amino group conjugated with ([2-(2-Amino-ethoxy)-ethoxy]-acetyl)2-(γGlu)2-CO-(CH2)16-CO2H; C-terminal primary amide
[1]
  EC50, intracellular cAMP (HTRF): > 100 nM
[2]
  EC50, intracellular cAMP (HTRF): > 500 nM
[3]
  EC50, intracellular cAMP (HTRF): 0.0034 nM
[5]
  EC50, cAMP, GLP-1 Receptor Assay; sample T7-4 C.-4 wk: > 100 nM
  EC50, cAMP, GLP-1 Receptor Assay; sample T7-40 C.-4 wk: > 100 nM
  EC50, cAMP, GLP-1 Receptor Assay; sample T7m-4 C.-4 wk: > 100 nM
  EC50, cAMP, GLP-1 Receptor Assay; sample T7m-40 C.-4 wk: > 100 nM
[6]
  EC50, cAMP, GIP Receptor Assay; sample T7-4 C.-4 wk: > 100 nM
  EC50, cAMP, GIP Receptor Assay; sample T7-40 C.-4 wk: > 100 nM
  EC50, cAMP, GIP Receptor Assay; sample T7m-4 C.-4 wk: > 100 nM
  EC50, cAMP, GIP Receptor Assay; sample T7m-40 C.-4 wk: > 100 nM
[7]
  EC50, cAMP, Gcg Receptor Assay; sample T7-4 C.-4 wk: 0.0143 nM
  EC50, cAMP, Gcg Receptor Assay; sample T7-40 C.-4 wk: 0.0249 nM
  EC50, cAMP, Gcg Receptor Assay; sample T7m-4 C.-4 wk: 0.0211 nM
  EC50, cAMP, Gcg Receptor Assay; sample T7m-40 C.-4 wk: 0.0211 nM
[8]
  EC50, cAMP, GLP-1 Receptor Assay; sample C6.5-4 C.-4 wk: > 100 nM
  EC50, cAMP, GLP-1 Receptor Assay; sample C6.5-40 C.-4 wk: > 100 nM
  EC50, cAMP, GLP-1 Receptor Assay; sample C6.5MT-4 C.-4 wk: > 100 nM
  EC50, cAMP, GLP-1 Receptor Assay; sample C6.5MT-40 C.-4 wk: > 100 nM
[9]
  EC50, cAMP, GIP Receptor Assay; sample C6.5-4 C.-4 wk: > 100 nM
  EC50, cAMP, GIP Receptor Assay; sample C6.5-40 C.-4 wk: > 100 nM
  EC50, cAMP, GIP Receptor Assay; sample C6.5MT-4 C.-4 wk: > 100 nM
  EC50, cAMP, GIP Receptor Assay; sample C6.5MT-40 C.-4 wk: > 100 nM
[10]
  EC50, cAMP, Gcg Receptor Assay; sample C6.5-4 C.-4 wk: 0.0369 nM
  EC50, cAMP, Gcg Receptor Assay; sample C6.5-40 C.-4 wk: 0.0257 nM
  EC50, cAMP, Gcg Receptor Assay; sample C6.5MT-4 C.-4 wk: 0.0193 nM
  EC50, cAMP, Gcg Receptor Assay; sample C6.5MT-40 C.-4 wk: 0.0214 nM
[4]
  Ki: 0.287 nM
Mouse glucagon receptor
  Ki: 0.174 nM
Rat glucagon receptor
  Ki: 1.56 nM

## YAEGTFISDYSIAMDKIHQQDFVNWLLAQKGKKNDWKHNITQ-NH2 [human GIP(1-42)NH2]
[3]
  EC50, intracellular cAMP (HTRF): > 10 nM

B3: Example 7 (peptide)
peptide: YXQGTFTSDYSKYLDXKKAXEFVAWLLEE
modifications: Aib at positions 2 and 16; K20 epsilon-amino group conjugated with ([2-(2-Amino-ethoxy)-ethoxy]-acetyl)2-(γGlu)1-CO-(CH2)18-CO2H; C-terminal acid
[1]
  EC50, intracellular cAMP (HTRF): > 100 nM
[2]
  EC50, intracellular cAMP (HTRF): > 500 nM
[3]
  EC50, intracellular cAMP (HTRF): 0.0166 nM
[4]
  Ki: 0.673 nM
Mouse glucagon receptor
  Ki: 0.753 nM
Rat glucagon receptor
  Ki: 1.38 nM
